The text below walks through data of patent US9655974B2, “N-terminal modified FGF21 compounds” (Novo Nordisk A/S, priority 2010, dated 2017).

The subject of one data set is 3T3-L1 adipocytes. Description: Potency assay - glucose uptake in 3T3-L1 adipocytes. It is filed as cell-based, mouse. The following applies: EC50 relative to EC50 of Met-FGF21; 20 hours stimulation, 3H-deoxyglucose tracer. How it is done:
The following assay was used for determining the biological activity, or potency, of FGF21 compounds of the invention. […] The cells are not allowed to reach confluence and should be passed (transferred to new vials) before reaching approx. 60% of confluency (by visual inspection). For the glucose uptake assay, cells are plated 80,000 cells/well in a 24 well plate, or 20,000 cells/well in a 96 well plate, and when they reach confluency (high density, with a view to have differentiated adipose cells made), the medium is changed from basal medium to basal medium containing Troglitazone, IBMX, Dexamethasone (commercially available from, e.g., Sigma) and human insulin (commercially available from, e.g., Novo Nordisk A/S). The cells are used 7-14, preferably 7-10, days after initiation of differentiation. […] This incubation is terminated by washing twice in ice cold assay buffer. The cells are lysed with Triton X-100 and lysates transferred to a 96 wells plate, microscint-40 (commercially available from, e.g., Perkin Elmer) is added and amount of tracer counted in a TOP-counter (e.g. a Packard top-counter from Perkin Elmer). The EC50 of the polypeptide in question is calculated.

For data set [1], the system named is HEK293 cells stably transfected with human beta-Klotho. Description: HEK293/beta-Klotho Erk phosphorylation assay. It is filed as cell-based. The following applies: without HSA; 12 minutes incubation; AlphaScreen SureFire Phospho-ERK1/2; read-out: pERK-HEK293-Beta-klotho without HSA [EC50 (nM)] Mean Value. How it is done: Erk phosphorylation assay was performed in HEK293 cells that were stably transfected with human beta-Klotho. The HEK293T/b-klotho stable cells were seeded at 30000 cells/well on 96-well plates. After two days, fresh media was added, and after 2 hours more the FGF21 proteins were added. The plates were incubated for 12 minutes. And total ERK phosphorylation was assessed using an AlphaScreen SureFire Phospho-ERK1/2 Assay Kit (Perkin Elmer, Waltham, Mass.) according to the manufacturer's instructions and an EnVision Multilabel Microplate Reader Model 2103 (Perkin Elmer) with the AlphaScreen HTS Turbo option was used for signal detection. Data are represented as means+/−S.E.M. EC50 values were determined from a 4-parameter logistic nonlinear regression analysis using GraphPad Prism version 5.02. References: Yie, J. et al.: FGF21 N- and C-termini play different roles in receptor interaction and activation, FEBS Letters 583 (2009) 19-24, and Micanovic R. et al.: Different roles of N- and C-termini in the functional activity of FGF21. J. Cell. Physiol. 2009 May; 219(2):227-34.
(Bead proximity is the source of the signal in Alpha formats.)

A short description of data set [2]: Pharmacokinetics in mini pig, single intravenous dose. The following applies: normal male Göttingen mini pigs, single intravenous dose of 0.1 mg/kg; standard deviation 2.7 hours. It is filed as in vivo. On the procedure:
The pharmacokinetic profile of Met-FGF21 can be tested in normal male Göttingen mini pigs, n=4 (8-15 months old, weighing approximately 18-30 kg). The plasma concentration of the compound to be tested is monitored for 14 days. The Met-FGF21 is dosed as a single intravenous dose of 0.1 mg/kg (approximately 5 nmol/kg).
The plasma levels of the FGF21 compounds can be determined using Fibroblast Growth Factor-21 Human ELISA (available from BioVendor, catalogue no. RD191108200R). The PC based software, WinNonLin version 5.2 from Pharsight Corporation, Cary N.C., can be used for the pharmacokinetic calculation.

One may read the EC50 as the midpoint of the concentration-response curve. For “N-alpha(4-{[2-(2-{2-[2-(2-{2-[(S)-4-Carboxy-4-(17-carboxyheptadecanoylamino)butyrylamino]-ethoxy}ethoxy)acetylamino]ethoxy}ethoxy)acetylamino]methyl}benzyl) [S71C, N121Q, L166F, S167G, M168L, P171L, S172E, Q173A, G174V, Y179F, A180E, des181] Ala-FGF21 [Example 6]”, the “Glucose uptake 3T3-L1 Potency (%) rel. to Met-FGF21” value with 3T3-L1 adipocytes came out at 352%. In addition, the 50% effective concentration (EC50) in data set [1] was determined as 0.4 nM. “N-alpha-(4-{[2-(2-{2-[2-(2-{2-[(S)-4-carboxy-4-(17-carboxyheptadecanoylamino)butyrylamino]ethoxy}ethoxy)acetylamino]ethoxy}ethoxy)acetylamino]methyl}benzyl) [K56R, K59R, K69R, D102T, D121Q, K122R, L166F, S167G, M168L, G170T] Ala-FGF21 [Example 5]”: the “Glucose uptake 3T3-L1 Potency (%) rel. to Met-FGF21” value in the data set with 3T3-L1 adipocytes was found to be 100%. Moreover, the EC50 in data set [1] was found to be 1 nM. For the molecule “[Q28R, K56R, K59R, K69R, D102T, D121Q, K122R, L166F, S167G, M168L, G170T] Ala-FGF21 [Example 2b]”, the “Glucose uptake 3T3-L1 Potency (%) rel. to Met-FGF21” value in the data set with 3T3-L1 adipocytes was 416%. Further, the concentration for a half-maximal effect (EC50) in data set [1] came out at 0.8 nM.

B1: N-alpha-bis-(4-{[(2-(2-{2-[2-(2-{2-[(S)-4-carboxy-4-(17-carboxyheptadecanoylamino)butyrylamino]ethoxy}ethoxy)acetylamino]ethoxy}-ethoxy)acetylamino]methyl}benzyl) [Arg56, Arg59, Arg69, Arg122] … (conjugate, UniProt Q9NSA1 29-209, looked up, variant K56R K59R K69R K122R)
Fibroblast growth factor 21: HPIPDSSPLLQFGGQVRQRYLYTDDAQQTEAHLEIREDGTVGGAADQSPESLLQLRALRPGVIQILGVRTSRFLCQRPDGALYGSLHFDPEACSFRELLLEDGYNVYQSEAHGLPLHLPGNRSPHRDPAPRGPARFLPLPGLPPALPEPPGILAPQPPDVGSSDPLSMVGPSQGRSPSYAS
modifications: N-terminal Gly; bis fatty diacid-linker benzyl acylation
As to B1, the “Glucose uptake 3T3-L1 Potency (%) rel. to Met-FGF21” value in the data set with 3T3-L1 adipocytes is listed as 8.5%. For the same molecule, the EC50 in data set [1] was 4.6 nM.

B2: [N121Q, L166F, S167G, M168L, P171L, S172E, Q173A, G174V, Y179F, A180E, des181] Ala-FGF21 (protein)
chain: HPIPDSSPLLQFGGQVRQRYLYTDDAQQTEAHLEIREDGTVGGAADQSPESLLQLKALKPGVIQILGVKTSRFLCQRPDGALYGSLHFDPEACSFRELLLEDGYNVYQSEAHGLPLHLPGQKSPHRDPAPRGPARFLPLPGLPPALPEPPGILAPQPPDVGSSDPFGLVGLEAVRSPSFES
Turning to B2, in the data set on 3T3-L1 adipocytes, the “Glucose uptake 3T3-L1 Potency (%) rel. to Met-FGF21” value is 1593%. Further, the EC50 in data set [1] was determined as 0.7 nM.

B3: [S71C, N121Q, L166F, S167G, M168L, P171L, S172E, Q173A, G174V, Y179F, A180E, des181] Ala-FGF21 (protein)
chain: AHPIPDSSPLLQFGGQVRQRYLYTDDAQQTEAHLEIREDGTVGGAADQSPESLLQLKALKPGVIQILGVKTCRFLCQRPDGALYGSLHFDPEACSFRELLLEDGYNVYQSEAHGLPLHLPGQKSPHRDPAPRGPARFLPLPGLPPALPEPPGILAPQPPDVGSSDPFGLVGLEAVRSPSFE
As to B3, the “Glucose uptake 3T3-L1 Potency (%) rel. to Met-FGF21” value in the data set with 3T3-L1 adipocytes is 872%.

B4: [S71C, N121Q, L166F, S167G, M168L, des170, 173aA, G174V, Y179F, A180E, des181] Ala-FGF21 (protein)
chain: AHPIPDSSPLLQFGGQVRQRYLYTDDAQQTEAHLEIREDGTVGGAADQSPESLLQLKALKPGVIQILGVKTCRFLCQRPDGALYGSLHFDPEACSFRELLLEDGYNVYQSEAHGLPLHLPGQKSPHRDPAPRGPARFLPLPGLPPALPEPPGILAPQPPDVGSSDPFGLVPSQAVRSPSFE
Consider B4, for which the “Glucose uptake 3T3-L1 Potency (%) rel. to Met-FGF21” value in the data set with 3T3-L1 adipocytes is recorded as 663%.

B5: [S71C, N121Q, L166F, S167G, M168L, 173aA, G174V, Y179F, A180E, des181] Ala-FGF21 (protein)
chain: AHPIPDSSPLLQFGGQVRQRYLYTDDAQQTEAHLEIREDGTVGGAADQSPESLLQLKALKPGVIQILGVKTCRFLCQRPDGALYGSLHFDPEACSFRELLLEDGYNVYQSEAHGLPLHLPGQKSPHRDPAPRGPARFLPLPGLPPALPEPPGILAPQPPDVGSSDPFGLVGPSQAVRSPSFE
Take B5: in the data set on 3T3-L1 adipocytes, the “Glucose uptake 3T3-L1 Potency (%) rel. to Met-FGF21” value stood at 394%.

B6: Met-FGF21 (protein)
chain: MHPIPDSSPLLQFGGQVRQRYLYTDDAQQTEAHLEIREDGTVGGAADQSPESLLQLKALKPGVIQILGVKTSRFLCQRPDGALYGSLHFDPEACSFRELLLEDGYNVYQSEAHGLPLHLPGNKSPHRDPAPRGPARFLPLPGLPPALPEPPGILAPQPPDVGSSDPLSMVGPSQGRSPSYAS
notes: comparative compound
As to B6, in the data set with 3T3-L1 adipocytes, the “Glucose uptake 3T3-L1 Potency (%) rel. to Met-FGF21” value was 100%. The “mean half-life (T1/2)” value in data set [2] stood at 10.8 h.

B7: [K56R, K59R, K69R, K122R] Gly-FGF21 (protein)
chain: GHPIPDSSPLLQFGGQVRQRYLYTDDAQQTEAHLEIREDGTVGGAADQSPESLLQLRALRPGVIQILGVRTSRFLCQRPDGALYGSLHFDPEACSFRELLLEDGYNVYQSEAHGLPLHLPGNRSPHRDPAPRGPARFLPLPGLPPALPEPPGILAPQPPDVGSSDPLSMVGPSQGRSPSYAS
Take B7: the “Glucose uptake 3T3-L1 Potency (%) rel. to Met-FGF21” value with 3T3-L1 adipocytes came out at 66%.

B8: [N121Q] Ala-FGF21 (protein)
chain: AHPIPDSSPLLQFGGQVRQRYLYTDDAQQTEAHLEIREDGTVGGAADQSPESLLQLKALKPGVIQILGVKTSRFLCQRPDGALYGSLHFDPEACSFRELLLEDGYNVYQSEAHGLPLHLPGQKSPHRDPAPRGPARFLPLPGLPPALPEPPGILAPQPPDVGSSDPLSMVGPSQGRSPSYAS
Turning to B8, in the data set with 3T3-L1 adipocytes, the “Glucose uptake 3T3-L1 Potency (%) rel. to Met-FGF21” value was found to be 116%.

B9: [N121Q] Met-FGF21 (protein)
chain: MHPIPDSSPLLQFGGQVRQRYLYTDDAQQTEAHLEIREDGTVGGAADQSPESLLQLKALKPGVIQILGVKTSRFLCQRPDGALYGSLHFDPEACSFRELLLEDGYNVYQSEAHGLPLHLPGQKSPHRDPAPRGPARFLPLPGLPPALPEPPGILAPQPPDVGSSDPLSMVGPSQGRSPSYAS
As for B9, the “Glucose uptake 3T3-L1 Potency (%) rel. to Met-FGF21” value in the data set on 3T3-L1 adipocytes was 119%.
